Measurements published in article PMC7644011.

Test system: rituximab (MabThera, anti-CD20 chimeric mouse/human IgG1) (chimeric mouse/human)
Experiment: ELASA
Settings: 80°C 1 min; ELASA on protein A plates, antibody 4 ug/ml; aptamers folded in 20 mM Tris pH 7.6, 100 mM NaCl, 2 mM MgCl2, 5 mM KCl, 1 mM CaCl2, 0.02% Tween 20, then diluted …

Sequence | Kd [nM]
ACTTCGGCTAGTTAGGGGGTAGTTTAGATCGTCTCTACAT [C10] | 17.6
GGCCATTGTGGACTTCTTTGGGTAATTCAGGGGCTCGATT [C7] | 8.8
